Measurements taken from patent US6638724.

Tested on: T1, human BLNK-1 (B cell LINKER PROTEIN, 70,000 Mr protein)
T1 sequence: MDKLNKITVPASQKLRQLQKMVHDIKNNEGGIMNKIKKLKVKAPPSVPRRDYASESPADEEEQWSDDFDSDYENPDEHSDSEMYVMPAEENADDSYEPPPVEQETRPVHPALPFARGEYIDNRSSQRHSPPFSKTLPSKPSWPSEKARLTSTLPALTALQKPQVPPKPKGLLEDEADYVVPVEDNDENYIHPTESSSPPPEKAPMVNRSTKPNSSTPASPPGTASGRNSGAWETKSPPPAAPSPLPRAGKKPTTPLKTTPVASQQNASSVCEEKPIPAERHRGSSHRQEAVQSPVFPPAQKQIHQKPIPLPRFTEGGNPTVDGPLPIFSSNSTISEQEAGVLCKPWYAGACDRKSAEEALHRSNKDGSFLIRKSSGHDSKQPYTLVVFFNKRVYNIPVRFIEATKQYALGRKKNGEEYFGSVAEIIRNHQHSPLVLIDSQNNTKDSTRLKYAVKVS

## Syk protein tyrosine kinase
  tyrosine phosphorylation of BLNK: Syk can phosphorylate BLNK when co-expressed in insect cells, and in vitro
